{"source": "paper PMC8835902", "about": "“DNA Polymerase-Parental DNA Interaction Is Essential for Helicase-Polymerase Coupling during Bacteriophage T7 DNA Replication”", "key": {"[1]": {"target": "WTgp5 (T7 DNA polymerase, exo-);thioredoxin (trx) (bacteriophage T7;Escherichia coli?, UniProt P00581;P0AA25 1-704;1-109, D5A;E7A|)", "assay": "EMSA; 20 mM Hepes pH 7.5, 1 mM EDTA, 100 mM KCl, 0.1 mM bME, 5% glycerol, 0.10 mg/mL BSA, 10 nM DNA, 25 C (30 min; 15 min + 15 min for supershift)", "conditions": "protein: recombinant;recombinant, tags: ;, copies: 1;1, label: 5' Cy5 on primer"}, "[2]": {"target": "T1, WAgp5;thioredoxin (trx) (bacteriophage T7;Escherichia coli?, UniProt P00581;P0AA25 1-704;1-109, D5A;E7A;W579A|)", "assay": "EMSA; similar to WTgp5; 20 mM Hepes pH 7.5, 1 mM EDTA, 100 mM KCl, 0.1 mM bME, 5% glycerol, 0.10 mg/mL BSA, 10 nM DNA, 25 C (30 min; 15 min + 15 min for supershift)", "conditions": "protein: recombinant;recombinant; tags: ;; copies: 1;1; label: 5' Cy5 on primer; primer-template, 26 bp duplex, 32 nt 5' template overhang"}, "[3]": {"target": "T1, WAgp5;thioredoxin (trx)", "assay": "EMSA; 1 and 0 gap affinities similar; 20 mM Hepes pH 7.5, 1 mM EDTA, 100 mM KCl, 0.1 mM bME, 5% glycerol, 0.10 mg/mL BSA, 10 nM DNA, 25 C (30 min; 15 min + 15 min for supershift)", "conditions": "protein: recombinant;recombinant, tags: ;, copies: 1;1, label: 5' Cy5 on primer"}, "[4]": {"target": "EQgp4 (T7 helicase);WTgp5 (T7 DNA polymerase, exo-);thioredoxin (trx) (bacteriophage T7;bacteriophage …, UniProt P03692;P00581;P0AA25 1-566;1-704;1-109, E343Q|D5A;E7A|)", "assay": "EMSA; EQgp4 titrated onto DNA pre-bound to WTgp5-trx (60-100 nM); 20 mM Hepes pH 7.5, 1 mM EDTA, 100 mM KCl, 0.1 mM bME, 5% glycerol, 0.10 mg/mL BSA, 10 nM DNA, 25 C (30 min; 15 min + 15 min for supershift)", "conditions": "protein: recombinant;recombinant;recombinant; tags: His tag removed (PreScission);;; chain copies: 6;1;1; label: 5' Cy5 on primer; fork 1:2 2:3, 2 nt ssDNA gap between primer end and fork"}, "[5]": {"target": "EQgp4 (T7 helicase);K3Dgp5;thioredoxin (trx) (bacteriophage T7;bacteriophage …, UniProt P03692;P00581;P0AA25 1-566;1-704;1-109, E343Q|D5A;E7A;K545D;K549D;K553D|)", "assay": "EMSA; K3Dgp5-trx stimulates EQgp4 binding; 20 mM Hepes pH 7.5, 1 mM EDTA, 100 mM KCl, 0.1 mM bME, 5% glycerol, 0.10 mg/mL BSA, 10 nM DNA, 25 C (30 min; 15 min + 15 min for supershift)", "conditions": "protein: recombinant;recombinant;recombinant; tags: His tag removed (PreScission);;; chain copies: 6;1;1; label: 5' Cy5 on primer; fork 1:2 2:3, 2 nt ssDNA gap between primer end and fork"}, "[6]": {"target": "EQgp4deltaC (bacteriophage T7, UniProt P03692 1-549, E343Q)", "assay": "EMSA; 20 mM Hepes pH 7.5, 1 mM EDTA, 100 mM KCl, 0.1 mM bME, 5% glycerol, 0.10 mg/mL BSA, 10 nM DNA, 25 C (30 min; 15 min + 15 min for supershift)", "conditions": "protein: recombinant; tags: His tag removed (PreScission); chain copies: 6; label: 5' Cy5 on primer; fork 1:2 2:3, 2 nt ssDNA gap between primer end and fork"}, "[7]": {"target": "EQgp4 (T7 helicase) (bacteriophage T7, UniProt P03692 1-566, E343Q)", "assay": "EMSA; dTTP; 20 mM Hepes pH 7.5, 1 mM EDTA, 100 mM KCl, 0.1 mM bME, 5% glycerol, 0.10 mg/mL BSA, 10 nM DNA, 25 C (30 min; 15 min + 15 min for supershift)", "conditions": "protein: recombinant; tags: His tag removed (PreScission); chain copies: 6; label: 5' Cy5 on primer; fork 1:2 2:3, 2 nt ssDNA gap between primer end and fork"}}}
{"binder": "Linear template-58nt (dsDNA) DNA 1: GGATTATTTACATTGGCAGATTCACC DNA 2: TTATTAGTTATGATATTCATGTATAGTTATATGGTGAATCTGCCAATGTAAATAATCC", "values": [{"measurement": "Kd", "setting": "[1]; primer-template, 26 bp duplex, 32 nt 5' template overhang", "result": 53, "unit": "nM"}, {"measurement": "binding result", "setting": "[2]", "result": "binds"}]}
{"binder": "Fork template 0gap (mixed) DNA 1: GGATTATTTACATTGGCAGATTCACC DNA 2: TTATTAGTTATGATATTCATGTATAGTTATATGGTGAATCTGCCAATGTAAATAATCC DNA 3: TATTCATGTATAGTTATGTAGAGACCGAGATCCGCGCTGCCAGTCGGCAGAGCC", "values": [{"measurement": "Kd", "setting": "[1]; fork 1:2 2:3, no gap", "result": 110, "unit": "nM"}, {"measurement": "binding result", "setting": "[3]; fork 1:2 2:3, no gap", "result": "binds"}]}
{"binder": "Fork template 1gap (mixed) DNA 1: GGATTATTTACATTGGCAGATTCACC DNA 2: TTATTAGTTATGATATTCATGTATAGTTATATGGTGAATCTGCCAATGTAAATAATCC DNA 3: TATTCATGTATAGTTATGTAGAGTCCGAGATCCGCGCTGCCAGTCGGCAGAGCC", "values": [{"measurement": "Kd", "setting": "[1]; fork 1:2 2:3, 1 nt ssDNA gap", "result": 63, "unit": "nM"}, {"measurement": "binding result", "setting": "[3]; fork 1:2 2:3, 1 nt ssDNA gap", "result": "binds"}]}
{"binder": "Fork template 2gap (mixed) DNA 1: GGATTATTTACATTGGCAGATTCACC DNA 2: TTATTAGTTATGATATTCATGTATAGTTATATGGTGAATCTGCCAATGTAAATAATCC DNA 3: TATTCATGTATAGTTATGTAGAGTTCCGAGATCCGCGCTGCCAGTCGGCAGAGCC", "values": [{"measurement": "Kd", "setting": "[4]", "result": 8, "unit": "nM"}, {"measurement": "binding result", "setting": "[5]", "result": "binds"}, {"measurement": "Kd", "setting": "[6]", "result": 30, "unit": "nM"}, {"measurement": "Kd", "setting": "[1]; fork 1:2 2:3, 2 nt ssDNA gap between primer end and fork", "result": 36, "unit": "nM"}, {"measurement": "Kd", "setting": "[7]", "result": 24, "unit": "nM"}]}
